Measured values published in patent US20240270860A1.

Experiments:
Assay in all cases: peptide-array ELISA (CYS.S) [Continued]
…2…2RPGWY2 = target: T1, …2…2RPGWY2
T1 sequence (peptide, 2 = Cys(ACM)): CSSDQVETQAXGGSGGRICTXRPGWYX

…2GGSGGICT2RPGWY2A = target: T2, …2GGSGGICT2RPGWY2A
T2 sequence (peptide, 2 = Cys(ACM)): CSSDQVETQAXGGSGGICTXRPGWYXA

VPE2LS2…2RPGWY2AL = target: T3, VPE2LS2…2RPGWY2AL
T3 sequence (peptide, 2 = Cys(ACM)): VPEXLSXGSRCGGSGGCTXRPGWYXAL

…2RPGWY2AL [1] = target: T4, …2RPGWY2AL
T4 sequence (peptide, 2 = Cys(ACM)): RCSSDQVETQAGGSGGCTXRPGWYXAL

2…2RPGWY2 = target: T5, 2…2RPGWY2
T5 sequence (peptide, 2 = Cys(ACM)): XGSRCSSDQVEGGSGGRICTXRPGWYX

S2…2RPGWY2 = target: T6, S2…2RPGWY2
T6 sequence (peptide, 2 = Cys(ACM)): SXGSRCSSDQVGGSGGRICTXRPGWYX

[2] = target: T7, QEGCRL2…
T7 sequence (peptide, 2 = Cys(ACM)): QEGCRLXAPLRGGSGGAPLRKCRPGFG

VPE2LS2…2RPGWY = target: T8, VPE2LS2…2RPGWY
T8 sequence (peptide, 2 = Cys(ACM)): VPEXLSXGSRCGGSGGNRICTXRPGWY

PE2LS2…2RPGWY2A = target: T9, PE2LS2…2RPGWY2A
T9 sequence (peptide, 2 = Cys(ACM)): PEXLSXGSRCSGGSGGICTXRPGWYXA

…2RPGWY2AL [3] = target: T10, …2RPGWY2AL; remark: listed apart in the source
T10 sequence (peptide, 2 = Cys(ACM)): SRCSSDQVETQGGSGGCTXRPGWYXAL

[4] = target: T11, NRI2…
T11 sequence (peptide, 2 = Cys(ACM)): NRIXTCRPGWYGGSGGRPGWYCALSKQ

[5] = target: T12, QEGCRL2…2…
T12 sequence (peptide, 2 = Cys(ACM)): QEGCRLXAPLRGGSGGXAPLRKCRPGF

VPE2LS2…2RPGWY2 = target: T13, VPE2LS2…2RPGWY2
T13 sequence (peptide, 2 = Cys(ACM)): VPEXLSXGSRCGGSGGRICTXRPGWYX

PE2LS2…2RPGWY2 = target: T14, PE2LS2…2RPGWY2
T14 sequence (peptide, 2 = Cys(ACM)): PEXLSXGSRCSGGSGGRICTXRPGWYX

…2…2RPGWY = target: T15, …2…2RPGWY
T15 sequence (peptide, 2 = Cys(ACM)): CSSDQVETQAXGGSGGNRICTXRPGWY

[6] = target: T16, WY2…
T16 sequence (peptide, 2 = Cys(ACM)): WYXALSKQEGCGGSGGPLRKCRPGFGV

[7] = target: T17, EGCRL2…2…
T17 sequence (peptide, 2 = Cys(ACM)): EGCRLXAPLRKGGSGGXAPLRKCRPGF

2…2RPGWY2AL = target: T18, 2…2RPGWY2AL
T18 sequence (peptide, 2 = Cys(ACM)): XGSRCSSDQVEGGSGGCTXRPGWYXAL

[8] = target: T19, 2…
T19 sequence (peptide, 2 = Cys(ACM)): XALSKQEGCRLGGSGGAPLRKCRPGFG

[9] = target: T20, REQNRI2…
T20 sequence (peptide, 2 = Cys(ACM)): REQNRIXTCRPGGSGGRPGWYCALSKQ

[10] = target: T21, …2…
T21 sequence (peptide, 2 = Cys(ACM)): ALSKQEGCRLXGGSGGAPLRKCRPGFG

[11] = target: T22, SKQEGCRL2…
T22 sequence (peptide, 2 = Cys(ACM)): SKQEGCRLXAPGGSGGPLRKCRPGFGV

[12] = target: T23, Y2…
T23 sequence (peptide, 2 = Cys(ACM)): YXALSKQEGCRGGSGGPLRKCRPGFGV

E2LS2…2RPGWY = target: T24, E2LS2…2RPGWY
T24 sequence (peptide, 2 = Cys(ACM)): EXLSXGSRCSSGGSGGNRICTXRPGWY

[13] = target: T25, …2…; remark: listed apart in the source
T25 sequence (peptide, 2 = Cys(ACM)): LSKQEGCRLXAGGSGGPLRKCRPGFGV

PE2LS2…2RPGWY2AL = target: T26, PE2LS2…2RPGWY2AL
T26 sequence (peptide, 2 = Cys(ACM)): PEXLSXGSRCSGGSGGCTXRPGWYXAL

[14] = target: T27, TREQNRI2…
T27 sequence (peptide, 2 = Cys(ACM)): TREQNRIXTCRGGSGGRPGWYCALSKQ

[15] = target: T28, …2AGGSGG2…
T28 sequence (peptide, 2 = Cys(ACM)): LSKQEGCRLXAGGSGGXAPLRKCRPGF

[16] = target: T29, KQEGCRL2…
T29 sequence (peptide, 2 = Cys(ACM)): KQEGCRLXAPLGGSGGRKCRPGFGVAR

…2RPGWY2AL [17] = target: T30, …2RPGWY2AL; remark: listed apart in the source
T30 sequence (peptide, 2 = Cys(ACM)): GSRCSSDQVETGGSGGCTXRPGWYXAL

[18] = target: T31, QEGCRL2…; remark: listed apart in the source
T31 sequence (peptide, 2 = Cys(ACM)): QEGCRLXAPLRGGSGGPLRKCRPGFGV

…2RPGWY2 = target: T32, …2RPGWY2
T32 sequence (peptide, 2 = Cys(ACM)): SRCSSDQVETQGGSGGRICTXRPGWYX

[19] = target: T33, 2…2…
T33 sequence (peptide, 2 = Cys(ACM)): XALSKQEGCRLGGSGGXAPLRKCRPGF

2LS2…2RPGWY2 = target: T34, 2LS2…2RPGWY2
T34 sequence (peptide, 2 = Cys(ACM)): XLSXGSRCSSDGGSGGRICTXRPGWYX

PE2LS2…2RPGWY = target: T35, PE2LS2…2RPGWY
T35 sequence (peptide, 2 = Cys(ACM)): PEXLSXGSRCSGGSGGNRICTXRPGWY

LS2…2RPGWY = target: T36, LS2…2RPGWY
T36 sequence (peptide, 2 = Cys(ACM)): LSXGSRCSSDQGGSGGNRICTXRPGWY

…2RPGWY = target: T37, …2RPGWY
T37 sequence (peptide, 2 = Cys(ACM)): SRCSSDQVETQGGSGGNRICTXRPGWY

[20] = target: T38, Y2…2…
T38 sequence (peptide, 2 = Cys(ACM)): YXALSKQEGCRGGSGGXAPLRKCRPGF

B1: antagonistic TNFR2 antibody TNFRAB1 (antibody, V domains shown)
VH: EVQLQESGGGLVKPGGSLKLSCAASGFTFSSYVMSWVRQTPEKRLEWVATISSGGSYTYYPDSVKGRFTISRDNAKNTLYLQMSSLRSEDTAMYYCARQRVDGYSSYWYFDVWGAGTAVTVSS
VL: DIVLTQSPAIMSASPGEKVTITCSASSSVYYMYWFQQKPGTSPKLWIYSTSNLASGVPVRFSGSGSGTSYSLTISRMEAEDAATYYCQQRRNYPYTFGGGTKLEIKR
Raw luminescence data (…2…2RPGWY2): 597 | Raw luminescence data (…2GGSGGICT2RPGWY2A): 454 | Raw luminescence data (VPE2LS2…2RPGWY2AL): 483 | Raw luminescence data (…2RPGWY2AL [1]): 319 | Raw luminescence data (2…2RPGWY2): 614 | Raw luminescence data (S2…2RPGWY2): 465 | Raw luminescence data [2]: 340 | Raw luminescence data (VPE2LS2…2RPGWY): 853 | Raw luminescence data (PE2LS2…2RPGWY2A): 542 | Raw luminescence data (…2RPGWY2AL [3]): 391 | Raw luminescence data [4]: 426 | Raw luminescence data [5]: 570 | Raw luminescence data (VPE2LS2…2RPGWY2): 478 | Raw luminescence data (PE2LS2…2RPGWY2): 585 | Raw luminescence data (…2…2RPGWY): 487 | Raw luminescence data [6]: 341 | Raw luminescence data [7]: 604 | Raw luminescence data (2…2RPGWY2AL): 480 | Raw luminescence data [8]: 418 | Raw luminescence data [9]: 228 | Raw luminescence data [10]: 321 | Raw luminescence data [11]: 369 | Raw luminescence data [12]: 381 | Raw luminescence data (E2LS2…2RPGWY): 389 | Raw luminescence data [13]: 434 | Raw luminescence data (PE2LS2…2RPGWY2AL): 697 | Raw luminescence data [14]: 188 | Raw luminescence data [15]: 529 | Raw luminescence data [16]: 430 | Raw luminescence data (…2RPGWY2AL [17]): 464 | Raw luminescence data [18]: 558 | Raw luminescence data (…2RPGWY2): 568 | Raw luminescence data [19]: 439 | Raw luminescence data (2LS2…2RPGWY2): 436 | Raw luminescence data (PE2LS2…2RPGWY): 928 | Raw luminescence data (LS2…2RPGWY): 822 | Raw luminescence data (…2RPGWY): 482 | Raw luminescence data [20]: 308
